Publication PMC11589706, “Cryo-EM structure of PML RBCC dimer reveals CC-mediated octopus-like nuclear body assembly mechanism” (Cell Discovery, 2024)

B1: MBP-PML_(46–391) (domain or fragment, human, UniProt P29590 46-391, looked up)
chain: PASEEEFQFLRCQQCQAEAKCPKLLPCLHTLCSGCLEASGMQCPICQAPWPLGADTPALDNVFFESLQRRLSVYRQIVDAQAVCTRCKESADFWCFECEQLLCAKCFEAHQWFLKHEARPLAELRNQSVREFLDGTRKTNNIFCSNPNHRTPTLTSIYCRGCSKPLCCSCALLDSSHSELKCDISAEIQQRQEELDAMTQALQEQDSAFGAVHAQMHAAVGQLGRARAETEELIRERVRQVVAHVRAQERELLEAVDARYQRDYEEMASRLGRLDAVLQRIRTGSALVQRMKCYASDQEVLDMHGFLRQALCRLRQEEPQSLQAAVRTDGFDEFKVRLQDLSSCIT
notes: source: E. coli BL21(DE3), purified; not shown: MBP, N-terminal, kept
B2: MBP-PML_(46–256) (domain or fragment, human, UniProt P29590 46-256, looked up)
chain: PASEEEFQFLRCQQCQAEAKCPKLLPCLHTLCSGCLEASGMQCPICQAPWPLGADTPALDNVFFESLQRRLSVYRQIVDAQAVCTRCKESADFWCFECEQLLCAKCFEAHQWFLKHEARPLAELRNQSVREFLDGTRKTNNIFCSNPNHRTPTLTSIYCRGCSKPLCCSCALLDSSHSELKCDISAEIQQRQEELDAMTQALQEQDSAFGA
notes: Monomer and dimer fractions were separated by SEC; The cryo-EM model covers P46-S221; also called PML RBCC fragment; PML RBCC dimer; source: E. coli BL21(DE3), purified (amylose column, Superdex 200 Increase SEC); not shown: MBP, N-terminal, kept
B3: PML_(46–362) (domain or fragment, human, UniProt P29590 46-362, looked up)
chain: PASEEEFQFLRCQQCQAEAKCPKLLPCLHTLCSGCLEASGMQCPICQAPWPLGADTPALDNVFFESLQRRLSVYRQIVDAQAVCTRCKESADFWCFECEQLLCAKCFEAHQWFLKHEARPLAELRNQSVREFLDGTRKTNNIFCSNPNHRTPTLTSIYCRGCSKPLCCSCALLDSSHSELKCDISAEIQQRQEELDAMTQALQEQDSAFGAVHAQMHAAVGQLGRARAETEELIRERVRQVVAHVRAQERELLEAVDARYQRDYEEMASRLGRLDAVLQRIRTGSALVQRMKCYASDQEVLDMHGFLRQALCRLRQE
notes: PML (TRIM19), human, residues 46-362, the complete RBCC domain; also called truncated protein PML_(46–362); complete RBCC domain; source: E. coli BL21(DE3), purified; not shown: MBP, N-terminal, cleaved
B4: MBP-PML_(46–362) (domain or fragment, human, UniProt P29590 46-362, looked up)
chain: B3 chain
notes: PML (TRIM19), human, residues 46-362; source: E. coli BL21(DE3), purified; not shown: MBP, N-terminal, kept

Columns and labels:
[1] = target: the molecule itself; test: SEC; analytical size exclusion on Superdex 200 Increase 10/300 GL in 20 mM HEPES, pH 7.4, 100 mM NaCl, 4% glycerol; all truncations N-terminally fused to MBP
[2] = target: the molecule itself; test: cryo-EM structure; MBP-PML_(46–256) dimer fraction from SEC, ~3 mg/mL; non-tilt and 40°-tilt data; C2 symmetry imposed; 5.3 Å overall
[3] = target: the molecule itself; test: cross-linking; XL-MS: purified SEC fractions crosslinked with 2 mM BS3 at 4 °C for 2 h; trypsin digest, LC-MS/MS, pLink2; intra-subunit XLs of the monomer fraction subtracted from those of the dimer

Protein | binding result [1] | further results
B1 | binds | 
B2 |  | stoichiometry N [2]: 2
B3 |  | binding result [3]: binds
B4 | binds | 
